Data published in paper PMC12977500, “Mechanistic insights into SteAB regulation of cell wall hydrolase RipA in Mycobacterium tuberculosis” (mBio, 2026).

T1: MtRipACAT (catalytic domain of M. tuberculosis RipA, residues 261–472) (Mycobacterium tuberculosis, UniProt O53168 261-472)
T1 construct: also called MtRipA catalytic domain; NlpC/P60 catalytic domain; not shown: His6, N-terminal, cleaved; SUMO, N-terminal, cleaved
T1 sequence: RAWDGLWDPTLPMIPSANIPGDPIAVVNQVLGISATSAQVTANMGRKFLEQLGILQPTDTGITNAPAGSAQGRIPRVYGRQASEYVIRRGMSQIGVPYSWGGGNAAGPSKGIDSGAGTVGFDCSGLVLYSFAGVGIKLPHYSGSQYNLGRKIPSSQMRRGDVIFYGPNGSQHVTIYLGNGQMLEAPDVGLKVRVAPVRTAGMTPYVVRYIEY

B1: MtRipACC (coiled-coil domain of M. tuberculosis RipA, residues 40–240) (domain or fragment)
chain: DPQTDTIAALIADVAKANQRLQDLSDEVQAEQESVNKAMVDVETARDNAAAAEDDLEVSQRAVKDANAAIAAAQHRFDTFAAATYMNGPSVSYLSASSPDEIIATVTAAKTLSASSQAVMANLQRARTERVNTESAARLAKQKADKAAADAKASQDAAVAALTETRRKFDEQREEVQRLAAERDAAQARLQAARLVAWSSE
modifications: biotin (EZ-Link NHS-PEG4-Biotin, 20 molar excess) in the BLI assays only
notes: Biotinylated and immobilised on streptavidin sensors for BLI; not biotinylated in the crystal of the complex; also called RipA coiled-coil domain; CC domain of RipA; not shown: His6, N-terminal, cleaved; SUMO, N-terminal, cleaved
B2: CgSteBΔTM (soluble SteB of Corynebacterium glutamicum) (domain or fragment)
chain: APNLPENIDPNAPTSAELVEAETLAEVNAVQADQADSIIDHIVEDVVAGTLTDRPVLVMRTADAEESDVADVSWLLQQAGAINAGSITLEENFFSQDGADQLKSIVANTLPAGAQLSETQLDPGTHAGEALGAALLLNPETGEPLASTAERGLLLNVLRDNGYISYEDGTILPGQVIVMITGDSDGSGDGAFAAETQSLFARALDAQGSGVVVAGRIHTAADTGVIGRLRANPDAAENVSTIDSVNRTWGKMATVLSVREELAGRSGAFGSAASADAASPSLDGTAAAPAQ
notes: The cloning of this construct is not described here; source: E. coli BL21 (DE3), purified ("pure protein sample")

Key:
[1] = target: T1, MtRipACAT (catalytic domain of M. …); experiment: BLI; biotinylated MtRipACC immobilised on streptavidin biosensors; Octet-Red384, 25°C; 25 mM HEPES pH 7.5, 150 mM NaCl, 5% glycerol, 1 mg/mL BSA, 0.05% Tween 20; MtSteB 200–3.125 μM or MtRipACAT 80–1.25 μM; steady-state signal, one-site binding model; apparent Kd; conditions: both partners purified
[2] = target: the molecule itself; experiment: SEC; analytical SEC, Superdex-200 3.2/300, 25 mM Hepes pH 8, 150 mM NaCl; calibrated with BioRad gel filtration standard

Binder | Kd [1] [µM] | stoichiometry N [2]
B1 | 6.8 ± 1.4 | –
B2 | – | 2
